# Measured values published in patent US20200022997A1, “ORAL ANTICANCER PRODRUGS, THEIR PREPARATION METHODS AND APPLICATIONS” (Seoul National university R&DB Foundation, priority 2018, published 2020).
# Like-named read-outs stand apart in the source and are kept apart here. *1 amine or outer side, *2 acyl side, *3 side chain or, on linkers, in order; H or OH if unused. Where a SMILES comes first, the peptide text is derived from it. [ ]: non-standard residue; d: D form. The star is where a group is joined. Doxorubicin(3'-N) = COc1cccc2c1C(=O)c1c(O)c3c(c(O)c1C2=O)C[C@@](O)(C(=O)CO)C[C@@H]3O[C@H]1C[C@H](N*)[C@H](O)[C@H](C)O1; PABC = O=C(OCc1ccc(N[*:1])cc1)[*:2]
# Legend:
# MDA-MB-436 xenograft = assay: MDA-MB-436 xenograft, daily oral dosing with or without olaparib; type: in vivo, female NSG SCID mouse; conditions: monotherapy, 50 mg/kg intraperitoneal, 5 days on/2 days off for two weeks
# Protocol: Human breast cancer MDA-MB-436 cells were transplanted into a female NSG SCID mouse, and when the cancer tumor size reached 100-150 mm^3, 3 mg/kg of DEVD-S-DCX/DCK (based on the docetaxel content), was orally administered daily. 50 mg/kg of olaparib was administered by intraperitoneal injection daily for the first five days of every week for two weeks (5 days on/2 days off). In addition, a test group without olaparib was daily orally administered 3 mg/kg DEVD-S-DCX/DCK (based on the docetaxel content).
# [1] = system: MDA-MB-231 human breast cancer cell line; assay: MTT cytotoxicity assay combined with radiation (4 Gy) and/or caspase inhibitor Z-VAD-FMK; type: cell-based; conditions: by itself, without radiation
# Protocol: The degree of cytotoxicity of DEVD-S-DOX was assessed using an in vitro MTT assay and combined radiation therapy in the MDA-MB-231 human breast cancer cell line. The MDA-MB-231 cell line was irradiated with radiation and the expression of caspase-3 was evaluated. Western blot (FIG. 6A) and a cellular caspase-3 activity assay (FIG. 6B) confirmed that the expression of caspase-3 increased over time.
# Next, the cancer cells were cultured in a 96-well microplate at the density of 5×10^4 cell/well in DMEM (10% FBS) medium for 24 hours, and then treated with DEVD-S-DOX or 5 μM Doxorubicin. Some of the test groups were also treated with Z-VAD-FMK, which is a caspase inhibitor. Then cells were irradiated with 4 Gy of radiation, and after 24 and 48 hours, cell viability was assessed against the controls using an MTT assay (FIG. 7). […] This confirmed that caspase-3 was expressed via radiation therapy in the cancer cells, which then activated DEVD-S-DOX and led to a synergistic cytotoxic effect.
# [2] = rat, in vivo; for Cmax: Sprague Dawley
# Protocol: (§1) Quantitative analysis was performed by measuring the fluorescence intensity in plasma, and using a standard curve to determine concentration (FIG. 9).
# in vivo = conditions: Sprague Dawley, rat
# Protocol: as §1
# [3] = system: human breast cancer cells MDA-MB-231; assay: MTT cytotoxicity assay with or without human recombinant caspase-3; conditions: read-out: IC50 cytotoxicity (MTT); pretreated with caspase-3 (500 ng/mL), 48 hours
# Protocol: The cytotoxicity of DEVD-S-DOX in human breast cancer cells MDA-MB-231 was assessed using MTT assay with or without the treatment with human recombinant caspase-3. After the cancer cells were placed on a 96-well microplate at the concentration of 5×10^4 cell/well and cultured in DMEM (10% FBS) media for 24 hours, doxorubicin, DEVD-S-DOX, and DEVD-S-DOX, pre-treated with caspase-3 (500 ng/mL), were added at concentrations ranging from 0.01-100 μM, and further cultured for 48 hours. After that, 10 μL of MTT agent were added to each well and cultured for 2 hours at 37° C. until a blue precipitate forms. At this point, 100 μL of detergent agent was added and cultured for 4 hours at room temperature. Optical density was measured in each well at 570 nm to determine cell viability.
# [4] = Toxicity evaluation: hematological and biochemical parameters and histology after one month of administration; conditions: 2.5 mg/kg
smiles,measurement,setting,value
O=C(c1cc(Cc2n[nH]c(=O)c3ccccc23)ccc1F)N1CCN(C(=O)C2CC2)CC1 [olaparib],tumor growth suppression,MDA-MB-436 xenograft,ineffective
"COc1cccc2c1C(=O)c1c(O)c3c(c(O)c1C2=O)C[C@@](O)(C(=O)CO)C[C@@H]3O[C@H]1C[C@H](NC(=O)OCc2ccc(NC(=O)[C@H](CC(=O)O)NC(=O)[C@@H](NC(=O)[C@H](CCC(=O)O)NC(=O)[C@H](CC(=O)O)NC(=O)CNC(=O)[C@H](CCCCN)NC(C)=O)C(C)C)cc2)[C@H](O)[C@H](C)O1 [DEVD-S-DOX, Ac-KGDEVD-PABC-Doxorubicin] (Ac-KGDEVD[PABC]-{Doxorubicin(3'-N)})",cytotoxicity (MTT),[1],did not show any noticeable cytotoxicity
same,Cmax,"[2]; iv, 1 mg/kg",3370 ± 310 ng/mL
same,Cmax,"[2]; po, 10 mg/kg",72 ± 33 ng/mL
same,BA (bioavailability),"[2]; po, 10 mg/kg",negligible bioavailability
same,AUC(0-inf),"in vivo; iv, 1 mg/kg",3370 ± 250 ng·h/mL
same,AUC(0-t),"in vivo; iv, 1 mg/kg",3110 ± 290 ng·h/mL
same,MRT,"in vivo; iv, 1 mg/kg",2.01 ± 0.28 h
same,AUC(0-inf),"in vivo; po, 10 mg/kg",130 ± 60 ng·h/mL
same,AUC(0-t),"in vivo; po, 10 mg/kg",100 ± 50 ng·h/mL
same,MRT,"in vivo; po, 10 mg/kg",1.18 ± 0.03 h
same,Tmax,"in vivo; po, 10 mg/kg",1 h
same,bioavailability,"in vivo; po, 10 mg/kg",0.45 ± 0.22%
same,IC50,[3],1780 nM
same,BASO,[4],1.0 ± 0.5%
same,MONO,[4]; normal range 1.0-5.0,6.8 ± 1.7%
same,WBC,[4]; normal range 4.0-15.0,12.8 ± 5.4 m/mm^3
same,RBC,[4]; normal range 6.0-11.0,7.1 ± 1.4 M/mm^3
same,Segment,[4]; normal range 10.0-30.0,18.2 ± 0.7%
same,MCH,[4]; normal range 13.0-22.0,16.4 ± 1.8 pg
same,Hb,[4]; normal range 14.0-18.0,11.4 ± 1.3 g/dL
same,MCHC,[4]; normal range 24.0-40.0,33.4 ± 3.8 g/dL
same,Hct,[4]; normal range 35.0-45.0,35.1 ± 7.2%
same,MCV,[4]; normal range 35.0-50.0,49.2 ± 7.2 fL
same,Lympho,[4]; normal range 70.0-81.0,71.0 ± 4.9%
same,Platelet,[4]; normal range 600-1000,1008 ± 392 m/mm^3
same,EOS,[4]; normal range <10.0,2.8 ± 1.4%
